From the nanobody polyreactivity screen of Harvey et al. (2022)

test: yeast display, Sf9 membrane polyspecificity reagent, FACS + sequencing; frameworks hold sequencing errors
Procedure, shortened: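 Using colony PCR, genes from sorted yeast display clones were amplified, then sequenced on MiSeq at 2 × 250 and filtered by CDR length. The clones had been stained with 10% biotinylated, detergent-solubilized Sf9 membrane reagent for 1 hour at 4 °C and sorted by FACS into low and high (top ~1%) gates on anti-HA and streptavidin fluorescence. Polyreactivity labels come from the gate of origin.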

Sequence	polyreactivity (PSR sort gate)
QVQLVESGGGLVQAGGSLRLSCAASGSTSSTYAKGWYRQAPGKERELVATINWDGASTYYADSVKGRFTISRDNATNTVYLQMNSLKPEDTAVYYCAAQSGAVHFLEDDYWGQGTQVTVSS	low polyreactivity
QVQLVESGGCLVQAGGSLRLSCAASGRIFRTYTMGWYRQAPGKERELVAAITWNGGSTYYADSVKGRFTISRDNAKNTVYLQMNSLKPEDTAVYYCIADRHYSAYPLYDYWGQGTQVTVSS	low polyreactivity
QFQLVESGGGLVQAGGSLRLSCAASGSIFKYNAMGWYRQAPGKEREFVAAISSSSGNTYYADSVKGRFTISRDNAKNTLYFQMNSLKPEDTAVYYCAADASRPRIPEMYYWGQGTQVTVSS	high polyreactivity
QVQLVESGGGLVQAGGSLRLSCAASGSTFRTNAMGWYRQAPGKERELVAAISGSGSRTYYADSVKGRFTISRDNAKNTVYLQMNSLKPEDTAVYYCAAVYGGVGYRRREYWGQGTQVTVSS	high polyreactivity
QVQLVESGGGLVQAGGSLRLSCAASGLTFAYYDMGWYRQAPGKERELVAAITSGGTTNYADSVKGRFTISRDNAKNTVYLQMNSLKPEDTAVYYCNADYYSRIVGVRIYDYWGQGTQVTVSS	low polyreactivity
QVQLVESGGGLVQAGGSLRLTCAASGSTFTYYAMGWYRQAPGKERDLVAAITSSDGSTYYADSVKGRFTISRDNAKNTVYLQMNSLKPEDTAVYYCAADNYVDFYDEYDYWGQGTQVTVSS	low polyreactivity
QVQLVESGGGLVQAGGSLRLSCAASGRTFYGNAMGWYRQAPGNERELVAAITTGGGNTYYADSVKGRFTISRDNAKNTVYLQMNSLKPDDTAVYYCAAYERKFYTVSRWYKLDYWGQGTQVTVSS	high polyreactivity
HVQLVDSGGGLVQAGGSLRLTCAASGNIFVPYAMGWYRQAPGKERELVAAINGGGSTNYADSLKGRFTISRDNAKNTVYLQMNSLKPEDTAVYYCAAVWYFLSLWYDYWGQGTQVTVSS	high polyreactivity
QVQLVESGGGLVQAGGSLRLSCAASGRTFSWNAMGWYRQAPGKERELVAAINRSGGITFYADSVKGRFTISRDNAKNTVYLHMNSLKPEDTAVYYSAADRSFGHHYWYSGKRYDYWGQGTQVTVSS	low polyreactivity
QVQLVESGGRLVQAGGSLRLSCAASGRIFAAYAMGWYRQAPGKEREFVAGITRTGGSTYYADSVKGRFTISRDHAKNTVYFQMNSLKPEDTAVYYCAASLVYYGHAYNYWGQGTQVTVSS	high polyreactivity
QVQLVESGGGLVQAGGSLRLSCAASGITIIHNAMGWYRQAPGKERELVAAITTSDGSTYYADSVKGRFTISRDNAKNTVYLQMNSLKPEDTAVYYCAARGRHSGYYSFPYYYWGQGTQVTVSS	low polyreactivity
QVQLVESGGGLVQAGGSLRLSCAASGSIFGTYAMRWYIQAPGKERDLVATISYGDGYTYYADSVKGRFTISRDNAKNTVYLLMNSLKPEDTPVYYCNTGVFSSGGPLVYWGEGTQVTVSS	low polyreactivity
QVQLVESGGGLVQAGGSLRLSCAASGFIFPVYAMGWYTQGGGKERELVADISSDGSTNYADSVKGRFTISRDNAKNTVYLQMNSLKPEDTAVYYCAREDNLRHQSDSRYDYWGQGTQVTVSS	low polyreactivity
QVLLVESGGGLVQAGGSLRLSSAASGSIFNRYAMGWYRQAPGKDSEFVAAITYSGGSTYYADSVKGRFTISRDNAKNNVYLQMIRVKPEDTAVYYCAKAYYPKGRYGFDYWGQGTQVTVSS	high polyreactivity
QVQLVESGGGLVQAGGSLSLSCAASGSTYFYAMGWYRQAPGKERELVAAISFSDGITYYADSVKGRFTISRDNAKNTVYLQMNSLKPEDTAVYYCAADYISLREEDYWGQGTQVTVSS	high polyreactivity
QVQLVESGGGLVQAGGSLRLTCAASGRNFPAYVMGWYRQAPGKERELVAGITSASSTYYADSVKGRFTISRDNAKNTVYLQMNSLKPEDTAVYYCAAVGYSVRQRYDYWGQGSQVTVSS	high polyreactivity

Sequence	polyreactivity (PSR sort gate)
QVQLVESGGGLVQAGCSLRLSCAASGRISKRYTMGWYRQAPGKERELVAAINSSTSTSYADSVKGRFTISRDNAKNTVYLKMNSRKPEDTAVYYCNARYNYSYDYNYWGQGTQVTVSS	low polyreactivity
QVQLVESGGGLVQAGGSLGISCAACGSIFSVNAMGWFRQAPGKERELVAGITISGGRTYYADSVKGRFTISRDNAKNTVYLQKNSLKPEDTAVYYCAAYVDPAYYYWGPGTQVTVSS	low polyreactivity
QVQLVESGGGIVQAGGSLRLSCAASGLTFSIYPIGWYRQAPGKERELVAAISWSGGSTYYADSVKGRFTISRDNAKNTVYLQMNSLKPEDTAVYYCAARVYRPWWSYDYWGQGTQVTVSS	high polyreactivity
QVQLVESGGGLVQAGGSLRLSCAASGRIFDLKAMGWYRQAPGERKGVGCLYFLVWWSTYYADSVKGRFTISRDNAKNTVYLQMNSLKPVDTAVYYCAAVYFYSWEGDGDYWGQGTQVTVSS	low polyreactivity
QVQLVESGGGLVQAGGSLRLSCAASGIIFDFYAMGWYRQAPGKERELVAAINSGSGSTYYADSVKGRFTISRDNAKNTVYLQMNSLKPEDTAVYYCAADGLSATLTWYSYDYWGQGTQVTVSS	low polyreactivity
QVQLVESGGGLVQAGGSLRLSCAASGRIFGYYAMGWYRQAPGKERELVAAINSGSRTYYADSVKGRFTISRDNAKNTVYLQMISLKAEDTAVYDCAASVRYPPYRSSDGQRGGYWGQGTEVTVSS	high polyreactivity
QVQLEESGGGLVQAGGSLRLSCAASGSTFYRYTMGWYRQAPGTERELVAAISRSGGRTYYADSVKGRFTISRDNAKNTVYLQMNSLKPEDTAVYYCAAARRYGRYFGYPMEYWGQGTQVTVSS	high polyreactivity
QVQLVESGGGLVQAGGSLRLSCAASGFTFYNYAMGWYRQAPGKERELVAAISRSGRTYYADSVKGRFTISRDNAKNTVYLQMNSLKPEDTAVYYCAAGHGGDPGSGYWGQGTQVTVSS	high polyreactivity
QVQIVESGGGLVQAGGSLRLSCASSGSTSYRNAMGWYRQAPGKEREFVASISKSTDSTYYADSVKGRFTISRDNAKNTVYLQMLSLKPEDTAVSYCADVQGYKGLQDDSWGQGTQVTVSS	high polyreactivity
QVQLVESGGGLVQAGGSLRLSCAASGSIVGYAMGWYRQAPGKERELVAAISSGGSTNYADSVKGRFTISRDNAKNTVYLQMNSLKPEDTAVYYCAKSWRWRANLRGYYWGQGTQVTVSS	high polyreactivity
QDQLLESGGGLVQAGGSLRLSCAASGRTFRYYTMGWYRQAPGKEREFVAAISSTGGTYYADSVKGRFTISRDNAKNTVYLQMNSLKPEDTAVYYCAATFIQFVVNVELYDYDYWGQGTQVTVSS	low polyreactivity
QVQLVESGGCLFQAGGSLRLSCAASGFIFGTYAIGWYRQAPGKERELVAAISVGRGSTYYADSVKGRFTISRDNAKNTVYLQMNSLKPEDTAVYYCAAVQLYQKHQITYVAHEYWGHGTQVTVSS	low polyreactivity
QVQLVESGGGLVQAGGSLRISCAASGRTFHYYDMGWYRQAPGKERELVAAISSTAGSTYYADSVKGRFTISRDNAQNTVHLQMNSLKPEDTAVYYCAARQFGYYHVRNEYWGQGTQVTVSS	high polyreactivity
QVQLVESGGGLVQAGGSLRLSCAASGRIFKANDMGWYRQAPGKERELVAITSSDSTNYADSVKGRFTISRDNAKNTVYLQMNSLKPEDTAVYYCAALSYYYSDRMDYWGQGTQVTVSS	low polyreactivity
QVQLVDSGGGLVQAGGSLRLSCAASGRIFPYYTMGCYRQAPGKETEFVAAISSSSVSTYYADSVKGRFTISRDNAKNTVYLQMNSLKAEDTAVYYCAAKRVGYHIGYVYPYGYWGQGTQVTVSS	high polyreactivity
